One data set concerns the target T1, CDADC1 (NYD-SP15) (Homo sapiens, UniProt Q9BWV3, E400A).
T1 construct: codon-optimized gene, E. coli BL21-CodonPlus(DE3)-RIL; homotrimer / hexamer (dimer of trimers), hexamer is the active form
T1 sequence (Q9BWV3 1-514 E400A): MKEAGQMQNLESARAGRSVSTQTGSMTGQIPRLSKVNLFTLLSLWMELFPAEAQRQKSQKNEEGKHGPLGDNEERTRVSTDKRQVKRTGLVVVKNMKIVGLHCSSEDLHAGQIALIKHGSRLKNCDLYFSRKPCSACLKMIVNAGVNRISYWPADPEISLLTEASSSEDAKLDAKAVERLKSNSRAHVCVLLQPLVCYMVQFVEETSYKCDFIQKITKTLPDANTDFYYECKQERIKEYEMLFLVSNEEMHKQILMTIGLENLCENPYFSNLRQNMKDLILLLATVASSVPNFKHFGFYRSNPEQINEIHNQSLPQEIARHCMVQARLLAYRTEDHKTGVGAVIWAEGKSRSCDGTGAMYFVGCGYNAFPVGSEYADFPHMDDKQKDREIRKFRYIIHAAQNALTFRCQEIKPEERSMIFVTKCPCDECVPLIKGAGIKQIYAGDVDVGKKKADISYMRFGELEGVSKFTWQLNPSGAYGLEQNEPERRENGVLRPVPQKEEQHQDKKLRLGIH
Put plainly: cryo-EM structure of complex. Format: binding. Conditions: hexamer, catalytically inactive variant.

Substrate in data set [1]: Nc1ccn([C@H]2C[C@H](O)[C@@H](COP(=O)(O)O)O2)c(=O)n1
Put plainly: fluorescent ammonia detection, initial velocities, allosteric sigmoidal fit. The conditions noted are these: Low Salt Reaction Buffer; 0.3 uM CDADC1 (monomer); Hill coefficient 1.8. Format: biochemical, Homo sapiens.

Substrate in data set [2]: Nc1ccn([C@H]2C[C@H](O)[C@@H](COP(=O)(O)OP(=O)(O)OP(=O)(O)O)O2)c(=O)n1
The data set is described as above. In kind it is biochemical, Homo sapiens. Conditions: Low Salt Reaction Buffer; 0.2 uM CDADC1 (monomer); Hill coefficient 1.22.

Substrate in data set [3]: Nc1ccn([C@@H]2O[C@H](COP(=O)(O)OP(=O)(O)OP(=O)(O)O)[C@@H](O)[C@H]2O)c(=O)n1
The description is as above. Format: biochemical, Homo sapiens. The conditions noted are these: Low Salt Reaction Buffer; 0.3 uM CDADC1 (monomer); Hill coefficient 1.6.

Data set [4] concerns the molecule itself. Description: cryo-EM structure; single-particle cryo-EM of CDADC1 E400A alone, with dCTP and with 5-methyl-dCTP; C3 (trimer) or D3 (dimer of trimers) symmetry imposed; maps 2.4 to 3.0 A.
Data set [5] deals with the molecule itself. Put plainly: mass photometry; Refeyn TwoMP; CDADC1 at ~0.06 uM (monomer), room temperature, 10 min, without a ligand or with 1 mM dCTP (dCTP stabilised against dissociation); hexamers dissociated to trimers and monomers over time; hexamer = dimer of trimers.

Where a chain is given by its changes, count along the chain named. Numbers in names are those of the source. Where “and” joins values, the source holds several entries; their conditions need not be identical. Equal values may be shown once.

From paper PMC12088426, “Activity and structure of human (d)CTP deaminase CDADC1” (Proceedings of the National Academy of Sciences of the …, 2025) come the findings set out here.

Take `Nc1ccn([C@H]2C[C@H](O)[C@@H](COP(=O)(O)OP(=O)(O)OP(=O)(O)O)O2)c(=O)n1` [dCTP]: on CDADC1 (NYD-SP15) (one dCTP per protomer in CTD active site, N4 coordinates Zn2+), the “cryo-EM structure of complex” value was “a hexamer with bound dCTP (PDB: 9HFS)”.
With `Cc1cn([C@H]2C[C@H](O)[C@@H](COP(=O)(O)OP(=O)(O)OP(=O)(O)O)O2)c(=O)nc1N` [5mdCTP], the “cryo-EM structure of complex” value on CDADC1 (NYD-SP15) (CTD active site, less clear map than dCTP) is “a hexamer with bound 5mdCTP (PDB: 9HFT)”.

B1: CDADC1 (NYD-SP15) (Homo sapiens) (protein)
chain: T1 sequence (Q9BWV3 1-514 E400A) with A400E
notes: codon-optimized gene, E. coli BL21-CodonPlus(DE3)-RIL; homotrimer / hexamer (dimer of trimers), hexamer is the active form
For orientation: kcat means the maximal rate divided by the concentration of active sites. Consider B1, for which the K0.5 in data set [1] was 5 mM; in data set [2], 0.2 mM; in data set [3], 0.7 mM. Also, the kcat worked out at 8.5 s⁻¹ in data set [1], 3.5 s⁻¹ in data set [2] and 5.0 s⁻¹ in data set [3].

B2: human CDADC1 E400A variant (enzyme, UniProt Q9BWV3 1-514, looked up)
chain: T1 sequence (Q9BWV3 1-514 E400A)
notes: CDADC1 (NYD-SP15), human, 514 residues, catalytic glutamate E400 changed to alanine; expressed from a codon-optimized gene; This variant was used for all cryo-EM datasets; source: E. coli BL21-CodonPlus (DE3)-RIL, purified (His-trap, Heparin HP, Superdex 200 Increase)
A word on the stoichiometry N: it is the number of molecules, sites or subunits per partner or assembly. In the case of B2, the “stoichiometry N” value in data set [4] is 3 and 6.

B3: human CDADC1 (enzyme, UniProt Q9BWV3 1-514, looked up)
chain: T1 sequence (Q9BWV3 1-514 E400A) with A400E
notes: CDADC1 (NYD-SP15), human, 514 residues, expressed from a codon-optimized gene; Complete methods are in the SI Appendix; also called NYD-SP15; source: E. coli BL21-CodonPlus (DE3)-RIL, purified (His-trap, Heparin HP, Superdex 200 Increase)
For B3, the “stoichiometry N” value in data set [5] was 3 and 6.
